Results on 1 molecule are retold here after paper doi:10.1101/756791 (bioRxiv, 2019).

For experiment [1], the target named is T1, Rpn10/S5a (UIM motifs: 196-306aa) (UniProt P55036 196-306).
T1 sequence (looked up): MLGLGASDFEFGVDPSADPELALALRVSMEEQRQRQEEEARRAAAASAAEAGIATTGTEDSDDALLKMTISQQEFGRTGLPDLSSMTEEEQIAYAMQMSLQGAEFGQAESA
The experiment can be described thus: ITC.

Experiment [2] addresses hRpn13 (Pru domain: 1-150aa) (human, UniProt Q16186 1-150). Kind of experiment: other fluorescence titration.
Experiment [3] has as its target T1, Rpn10/S5a (UIM motifs: 196-306aa). Kind of experiment: NMR titration.
For experiment [4] the target is unchanged. The experiment can be described thus: NMR titration. This is another data set of the same source.

hRpn13 (Pru domain: 1-150aa), sequence (Q16186 1-150): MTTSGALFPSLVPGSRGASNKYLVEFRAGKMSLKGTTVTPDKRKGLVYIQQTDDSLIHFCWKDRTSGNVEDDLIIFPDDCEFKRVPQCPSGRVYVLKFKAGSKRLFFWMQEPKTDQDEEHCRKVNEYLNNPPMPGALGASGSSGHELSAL

B1: viral Ubiquitin from Autographa Californica Multiple Nucleo-Polyhedrosis Virus (AcMNPV) (natural protein)
chain: not shown
For B1, in experiment [1], the affinity, expressed as Kd, was 85 µM; the dH was -4.5 ± 0.3 kcal/mol; the “stoichiometry N” value is 2 ± 0.1. Besides, in experiment [2], the affinity, expressed as Kd, was 40 nM. The molecule also registered a Kd in experiment [3] of 78 µM. Besides, in experiment [4], the “KD of the UIM1 site” value is 331 µM and the “KD of the UIM2 site” value was 21 µM.

For orientation: Kd means the equilibrium constant for the complex coming apart. Read a low Kd as tighter binding. Broadly, the stoichiometry N is the number of molecules, sites or subunits per partner or assembly.
